Measurements taken from a protein production outcome set (Wang et al. 2014).

Assay: label from the status in PepcDB records

Row | Sequence | protein production
1 | SRSRPAGPALLLLLLFLGAAESVRRAQPPRRYTPDWPSLDSRPLPAWFDEAKFGVFIHWGVFSVPAWGSEWFWWHWQGEGRPQYQRFMRDNYPPGFSYADFGPQFTARFFHPEEWADLFQAAGAKYVVLTTKHHEGFTNWPSPVSWNWNSKDVGPHRDLVGELGTALRKRNIRYGLYHSLLEWFHPLYLLDKKNGFKTQHFVSAKTMPELYDLVNSYKPDLIWSDGEWECPDTYWNSTNFLSWLYNDSPVKDEVVVNDRWGQNCSCHHGGYYNCEDKFKPQSLPDHKWEMCTSIDKFSWGYRRDMALSDVTEESEIISELVQTVSLGGNYLLNIGPTKDGLIVPIFQERLLAVGKWLSINGEAIYASKPWRVQWEKNTTSVWYTSKGSAVYAIFLHWPENGVLNLESPITTSTTKITMLGIQGDLKWSTDPDKGLFISLPQLPPSAVPAEFAWTIKLTGVK | failed
2 | MEGFPVRVRVDVRFRDLDPLGHVNNAVFLSYMELARIRYFQRISPDWLEEGHFVVARMEVDYLRPILLGDEVFVGVRTVGLGRSSLRMEHLVTANGESAAKGLGVLVWLEGGRPAPLPEAIRERIRALEGRPL | not failed
3 | MDRATEPVLFFFMAFFWALNYVMVKFAYAYDLSSSILLMRVLYASIFSSLIFIRQIKLPKSPLEHLKVFILANLNITGFFSLWFFGETGVSAAVTSIVIYSYPILATAFSYLFLGDRFGAMKTLGLILGFAGLVIIFIRSINVENLVDLIMLLVAAISWAIGTVFYRKYLLGYDSAGLNTLQLLYALPVVLLISLFTGGINIGLLQLKFNLIMIYMGSFGTAIAYFIYLYLYRKYKVSSISAYFFLVPAISVVLAAVLLKEPISALTIAGFAVMSAGIFLSGSFK | failed
4 | MAGLINKIGDALHIGGGNKEGEHKKEEEHKKHVDEHKSGEHKEGIVDKIKDKIHGGEGKSHDGEGKSHDGEKKKKKDKKEKKHHDDGHHSSSSDSDSD | failed
5 | MNHLKKLVSILICTLLIVSLLPFSVWADSQERDGTDVEEITTKEKVTQETTSNETTSEPLKGTTVNKAINAKSFPTGNYSGDFSINSQKDVIESGQTVNYNIYLKITGPNTRYQNAKLVINLPKNGEFNQSLNELKIAGATPSYNKTTRQLVYTYQTLNSGVVDKVILKMTTKNGYTPNGTKLVVTGELSADNLSEKVTEQAETTVNATATTALSNDFTKVENSINNNPSQGDIGIWSFNLNIPKKSTGSLFMEEGKKIVIEYTLADKLDYLGVAGDTPEPTKVEGQKLTWEIAAPTYLEQEKANSLLNKTFQIRTFFQPTIPNFATVENKAVATTNFVTLTDSIVDTSKASVSVSASDPATIPPTIGSVYAPAHRGPVDANWGIATVTGNPDIKVYDTAKLGFSLMLNSAMNDSPWYDFLYYDAYYNIDDNLNLDYFRSGDFYFKPNVNYPGWAQLKKSPKYNLLVKYDGDTDWTTLKEDVELSKMYSRKDLGIPDDKHVSKVWLHFTYAPAGMYAADLSFFTTVKEGYVGEVRNSTQINMYGADSQDYIHYYDDTNPWPEAWKNYAGDRTAQIIPQPTGKNKFVQGSVVFDDTDGNLINIGDNSISVNLESNKASISRLKGPFEAMVLLPSGVKMKNTEQNGFKVTVLNENYQNAGRQLLKVKWDKKTLLPAEKLTAKINVSVAKDTPSNMTVEMFGFLQDTDFNVPEVSGTPTISDTKMEIDSNDINQNGNSEESRITSGNHYILNTSNHLKISKKAKGNRDKEYSGLANATTNSIVSYQLSLENDSDEKIANMVLMDVLPSENDLGITDNSERGSKFNLALTKAVEVPKEWKDKVEVTYSTAKNPKRAGILDKHTIYPIGTEPLVDNTEATQADWLTASEVKDWSNIYSFKIELKEGIEWIPGKSMKIQFDLKTPKKNQIDKTLLKQQTKKEDRAAWNSFAVAVNNSQVIEPAQVGVALDDSVAPVTVQYVDQNHKQIASPETLTGAYGEKFTAKQKKINNYSLVKIPANVSGTFNEKAQTITFIYQKVTAGRIIVNYVDKNGEKIADSIVLNGKLNSSYTTSSKKISGYKLYQTPKNATGKFLNTSQTVTYVYERTSNLSISSSNKGTENVKKLAKLPHTGDSTTTNLWVIIGLFMLSGAFVIMKKR | failed
6 | MEKSKKLPFEVDRRSVYKCVQCGTCRSVCPVFDVVGWESANTRGRMLIIKSLIEGRPPSEDVLSSLASCTTCGICAAKCPAGANPPEVVEAARAQLVKCGVTTDAQLEHHHHHH | failed
7 | MTYCLGVKLKDGLVAIADTRITSGTDTTTAKKLFVHESAHGSLFLMTSGLRSVRDKAITYFKEVLKDEHVVYNQLYEAVNAFGNQLRRVAEEDRKALYAAGFAFNLHTIVGGQLKNDEEPKMFLLYPEGNWIELTQTSPFMIIGNSGYGKPILNRTVKYESTLEEVLKAGFLSFDSTRVSANDVDFPLDVVVYYNNSFKMIEHRFEKKDMEIISTTWDNQLKQALDSVPEEWMNVVFDRKNVLLEHHHHHH | failed
8 | MVGLADVAVLYSGGKDSNYALYWALKSGLRVRYLVSMVSENEESYMYHTPNVELTSLQARALGIPIIKGFTKGEKEKEVEDLKNVLEGLKVDGIVAGALASRYQKERIENVARELGLKVYTPAWEKDPYQYMLEIIKLGFKVVFVAVSAYGLNESWLGRELNYKNLEELKKLSEKYGIHIAGEGGEFETFVLDMPFFKAKIVIDDAEKFWDGLSGKFIIKRAHLEWK | not failed
9 | MSLEQASVTNDFSENKQGCIQHPWQGKKVGYIGDSITDPNCYGDNIKKYWDFLKEWLGITPFVYGISGRQWDDVPRQAEKLKKEHGGEVDAILVFMGTNDYNSSVPIGEWFTEQEEQVLSAHGEMKKMVTRKKRTPVMTQDTYRGRINIGITQLKKLFPDKQIVLLTPLHRSLANFGDKNVQPDESYQNGCGEYIDAYVQAIKEAGNIWGIPVIDFNAVTGMNPMVEEQLIYFYDAGYDRLHPDTKGQERMARTLMYQLLALPVAFEGHHHHHH | not failed
10 | MDYLNYEEIQSLKNSLLHNIKHTYISRYMILTALYTGMRPGEIAVLTWSDIDFKNQTININKSYNHDKGRVDNYDSSEIDKSTKNTNSVRIIKVDKKFLDILSQLKQNDHEKIFIGKDGTIPTSNAVNKVWRKQLEKLNIDKPSFHFHSVRHTHVALLPFKGVPLYAISKRLGHANMSTTAKKYAYMLDELKQQVRLEHHHHHH | not failed
11 | NFSNRVQDVIRLSREEALRLGHDYIGTEHLLLGLIREGEGIGAKILKNLKVDLFQLKQKIEENTHPKVPATQMGNVPLTKQAEKVLKITYLEAKICKSTIIGTEHLLLSILKGDDNIAAQILEQFGVTYDQVRDELMTITT | not failed
12 | MTIIDDGKLKKAITAASLGNAMEWFDFGVYGFVAYALGKVFFPDANPSVQMIAALGTFSVPFLIRPLGGLFFGMLGDKYGRQKILAITIVIMSISTFCIGLIPSYATIGIWAPILLLLCKMAQGFSVGGEYTGASIFVAEYSPDRKRGFMGSWLDFGSIAGFVMGAGVVVLISSVVGEQNFLDWGWRIPFFLALPLGIIGLYLRHALEETPAFQQHVDTMEQGDREGLQDGPKVSFKEIATKHWRSLLTCIGLVISTNVTYYMLLTYMPSYLSHNLHYSEDHGVLIIIAIMVGMLFVQPVIGMLSDRFGRRPFILIGSVALFALSIPAFIMINSNVTGLIFAGLLLLAVVLNCFIGVMASSLPAMFPTHIRFSALASAFNISVLIAGLTPTLAAWLVETTQNLMMPAYYLMVIAVVGMATGLSMKETANRPLKGATPAASDIQEAKEILGEHYDNIEQKIEDIDQEIADLQAKRSRLVQQHPRIND | failed
13 | MDRNSKIVVGLVAVLSIAGLVLSLAGLLEGGEGTIAIIPVHGAIAYDTAGFSDGVDPDDIKELIAEANSDPSVKAIVLDINSPGGTPVASEELMDAINKSEKPVVSWISDSGTSGAYLAASASDRIVASPSAWVGSIGVILDLTDLSQMYRQMGINKYAIKAGEYKDMGADYRMITDEERQMLQSMVNEEYDYFIKTVAANRNLSVSYVKSLAEGRIFTGRQAVRNRLVDFTGGKDYAVEVAAKLAGVKNYNTITLEPPSGFLRVLSSMFSRLGFASGNTTEELQLH | failed
14 | MVSRLVLGCGTVGHAVIGSLADRRGELFVFDGDESRVDSLRNESVAAEVRDVTDPAAITLPDRSVDMVVVAGERADRNRLAAIAADAAHPDAGLVVYLGFDATPKDRHRIDSVADRVVDPGAELLSHANSLTESGASQRLQALRQTLQGIDGRLGVFMHDNPDPDAIAAAVGLQRIAEDAGVDSQACYFGEISHQENRAFVNLLEFDLRNVETQSDAEFDAVALVDHSGPGVNDQLAPDTDVDIVIDHHPPTTDVDAGFTDIRPDTGATSTILVEYLRGYGIDVRTAVATALLYGIRVDTDDFAREITPRDFTAAAWLLPNADTDVLERIEAPSLSADTFDTIAAGIRNRQLNGSVLASCVGQITARDTLAQTADRLLAMRGVAVTFVYGYFDGTIYVSARSRRKDLDLGAVLRSAFDDLGSAGGHADMAGAQLPLGLFDAVGEDAATTLTEMIEEVVASRFFEEVHGGTSGIQQGE | failed
15 | DREREQHKREEAIQNFKALLSDMVRSSDVSWSDTRRTLRKDHRWESGSLLEREEKEKLFNEHIEALTKKKRE | not failed
16 | MHLGVIGATGTIGSRVVTEALARGHHVTAFTRDSTQIDEDRGNVVWKSLDVLDAASVAAGISGLDVLISGFQPGNAAKDIADTVARSIADPTVYATAARSLLKALESHPRTRLIVIGGAGSLEIEPGVVRADSDELLHSSLDALGLPRQYAAAVRGHRDALNVLRTSNRLWTYFSPAEDIAPGERTGRFRTGGDQPVLDAEGRSRISVEDAAVALVDEAELPRFVQRRFTIGY | failed
17 | MGCVFTNFRLRRSQTPKAKTPMIFEKQDYQQECIYNIITLLDGFDFKRHDALNLKDCLNQFHAACEIPVKNVSGKLNVDVLMETGTGKTFTYLNLIFALHKAYGQNKFIIFVPRKAILESVKQNIRLTKDYFYLEFKRHLKTYTYEGVKSPSNIINHYIKNQDELSVLLLTNSAIDKEGNILNKNSENLFNTKSIFENIADLKPISIIDEPHLLKGEAFGKYFGKIGALYFRFGATFAKEKEHALSNVAFCLDSISAFRNYLVKQIRIHSVMQDAQSPFLLNADSKSAKIAFYKAGILKQITLSKGEDLGKINASFNGVSLVKTAKDKAYLSNGATLEKASYKLAQDEISALLEKAIDLHFEKEAFLFDQNIKALSLFFIPKIEDFRQIDNKGTPFIKTEFERLYKLKRASILARENLSPSYKEYLKRDFDESGNLRVHQGYFSGDSVALNKGKKESKKEDIEANDIKMILSEKEKLLSFQTPLRFIFSVWALQEGWDNPNIFTLIKLANSTSETSRHQQVGRGLRIAINQEGKRVTHGFLKGNDNAFYKINYLDMLVSGEEVGFIEGLQKEIEASSFIGGGNALDREDLAKLGLNEREINKLFVELENSNALEFDETNNAYKIIAPICETMQNNEERIKDFLSDEEYHAVLSAFKMAENPTNKRDQIINANQPQEKVKIRQNLAKEFKELWQTINAQSQLSYQNIQKTKLIESIAKAFNESHVSAEVIKFESKRYDPQTNRIITEQSSTLKIRDYANALQKEINALLLDFAKDERLPLKFTLELYNALNKEHFTNSPKKAFKLLKGIIKDKLHENLLSCVSYGFCQNAFSNTAFDKTDPLYCEDGSPKNEIEKHKIGKYKSAQTPSPNYLYETIIYDSKIEEEVSEEGVQTLEGKSIEVFAKLPKFKIPTPYKNYEPDFAYLLKDEKGAKIFFVCETKGYEKESDIPPDEKRKIEYAKKFFETLSQNLKNAKKEIRVVFATRINKQDLFNTLKNALKETP | failed
18 | MTDNPFATPTAPVQPPAREVPATTQPYAFIAVLALVTCLSFAVSLGIQWYNDIGEIRQRFSEHLQLMAPHWFTGLVFYAAANLLVLHAYREKRQLVEFRPLALLLIGYGLLNLVCGMLAGIGLAPLTLPFYQWVTAQSSYGVWLMAFNEAMSWVYLLLGSLLPLGLVLLGSRVNSPRLAEGEEARVAAWQVALGAALCFATLCFKLMQFLPYALLRYDEPWLYGLYLSGVALPAALLFGAVCTRLPARLQRFAAGRALLLAVVAMLLWSVALLAVGGGLALLMILGLAPAGIGYTLLVALLGVGLLALLWPIGRLATRWCYADQLAA | failed
